Measured values as given in publication PMC4119023.
Where a chain is given by its changes, count along the chain named. Names may count otherwise.

Experiments:
[1] = substrate: Cc1cc(=O)oc2c(F)c(OP(=O)(O)O)c(F)cc12; experiment: steady-state phosphatase assay; format: biochemical, Kluyveromyces lactis; details: 50 mM MES pH 5.5, 30 °C, 10 μM enzyme
[2] = substrate: Cc1cc(=O)oc2c(F)c(OP(=O)(O)O)c(F)cc12; experiment: steady-state phosphatase assay; format: biochemical, Homo sapiens; details: 50 mM MES pH 5.5, 30 °C, 10 μM enzyme

B1: KlRtr1 FL (Kluyveromyces lactis NRRL Y-1140) (protein)
chain: MATIEEIKEVVLKPYTNHRQLTIREVETISINLIDLLITKDVKDARTMKYISRFLTKQDYADLVQERNLVKRCGYPLCSKSQARVRDPFADVQMTNFLRQNNPYAYLTEYCTKAHFRCSQFYQFQLSDEALFARVGVHLDDYEPPSEIQLLEEVLARESDVKQMIRGMTDLKLADDDSREEMERDISDMLADIKIVEINEPNIIGDLGRDR
Work on B1 yielded a Km ([1]; EDTA-treated enzyme) of 587 ± 70 µM and a kcat ([1]; EDTA-treated enzyme) of 0.001 ± 3e-05 s⁻¹.

B2: KlRtr1 NTD (Kluyveromyces lactis NRRL Y-1140) (protein)
chain: MATIEEIKEVVLKPYTNHRQLTIREVETISINLIDLLITKDVKDARTMKYISRFLTKQDYADLVQERNLVKRCGYPLCSKSQARVRDPFADVQMTNFLRQNNPYAYLTEYCTKAHFRCSQFYQFQLSDEALFARVGVHLDDYEPPSEIQLLEEVLA
With B2 the Km [1] was 694 ± 74 µM and the kcat [1] was 0.0015 ± 5e-05 s⁻¹.

B3: KlRtr1 FL (Kluyveromyces lactis NRRL Y-1140; E197Q) (protein)
chain: B1 chain with E197Q
Work on B3 yielded a Km ([1]; EDTA-treated enzyme) of 529 ± 45 µM and a kcat ([1]; EDTA-treated enzyme) of 0.0016 ± 4e-05 s⁻¹.

B4: hRPAP2 NTD (Homo sapiens) (protein)
chain: MADFAGPSSAGRKAGAPRCSRKAAGTKQTSTLKQEDASKRKAELEAAVRKKIEFERKALHIVEQLLEENITEEFLMECGRFITPAHYSDVVDERSIVKLCGYPLCQKKLGIVPKQKYKISTKTNKVYDITERKSFCSNFCYQASKFFEAQIPKTPVWVREEERHPDFQLLKEEQSGHSGEEVQLCSKAI
Work on B4 yielded a Km [2] of 1668 ± 205 µM and a kcat [2] of 0.0005 ± 3e-05 s⁻¹.
